Target: AtSAR1c-GFP (Arabidopsis thaliana) (UniProt O04834)
Experiment: co-IP

Chain of UniProt O04834 (O04834 whole entry): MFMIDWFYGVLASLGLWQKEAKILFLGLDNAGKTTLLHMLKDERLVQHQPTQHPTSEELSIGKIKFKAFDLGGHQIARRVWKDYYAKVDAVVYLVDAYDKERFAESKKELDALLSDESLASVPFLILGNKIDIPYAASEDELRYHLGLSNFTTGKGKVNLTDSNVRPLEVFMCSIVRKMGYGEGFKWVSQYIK

Work on “endogenous AtPHF1 (from UniProt Q8GYE0 1-398) (natural protein)” yielded a fold co-immunoprecipitated against AtSAR1b[H74L]-CFP of 4 fold, a fold co-immunoprecipitated against GFP of 3 fold and a fold co-immunoprecipitated against GFP, normalised, Pi deficiency of 30 fold.

— paper doi:10.1101/2025.01.09.632146
